The source of these data is US12383572B2, “Administration of an anti-activin-a compound to a subject” (AMGEN INC., priority 2013, dated 2025).

In this assay the test system is TOV-21G, MRC-5, CCD-Lu and THP-1 cell cultures. Briefly: VEGF and Ang-1 ELISA of cell culture medium after recombinant activin-A. It is filed as cell-based, human. The following applies: sActRIIB added with activin-A. The protocol: The serum VEGF levels in inh-KO mice were measured by using immunoassay kit (R & D Systems), and the levels of human VEGF and Ang-1 in cell line culture medium were quantified using ELISA kits purchased from Invitrogen (VEGF) and R & D Systems (Ang-1), by following the manufacturers' recommended protocols.

B1: sActRIIB: extracellular domain of human activin type-2B receptor fused to IgG2 Fc; full length SEQ ID NO: 21 (Table 9) (protein, listed as Homo sapiens)
chain: ETRWCIYYNANWELERTNQSGLERCEGEQDKRLHCYASWRNSSGTIELVKKGCWLDDFNCYDRQECVATEENPQVYFCCCEGNFCNERFTHLPEAGGPEVTYEPPPTAPTGGGGSVECPPCPAPPVAGPSVFLFPPKPKDTLMISRTPEVTCVVVDVSHEDPEVQFNWYVDGVEVHNAKTKPREEQFNSTFRVVSVLTVVHQDWLNGKEYKCKVSNKGLPAPIEKTISKTKGQPREPQVYTLPPSREEMTKNQVSLTCLVKGFYPSDIAVEWESNGQPENNYKTTPPMLDSDGSFFLYSKLTVDKSRWQQGNVFSCSVMHEALHNHYTQKSLSLSPGK
Turning to B1, the “activin-A-induced release of angiogenic factors (ELISA)” value is listed as “blocked completely this activin-A-induced release of angiogenic factors”.
